In this test the target is His-Nudel^1–201 (UniProt Q9GZM8). The test is described as follows: ITC.
Sequence of UniProt Q9GZM8 (Q9GZM8 1-201): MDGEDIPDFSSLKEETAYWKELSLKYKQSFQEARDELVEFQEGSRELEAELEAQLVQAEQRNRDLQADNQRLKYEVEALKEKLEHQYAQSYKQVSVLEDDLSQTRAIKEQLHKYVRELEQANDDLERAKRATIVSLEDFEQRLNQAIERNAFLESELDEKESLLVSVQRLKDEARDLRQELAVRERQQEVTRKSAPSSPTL

In general, Kd refers to the equilibrium constant for the complex coming apart. The low end stands for tighter binding, the high end for weaker binding. For His-DIC (natural protein), the Kd worked out at 7.8 µM.
For the substance “His-tagged Lis1 (from UniProt P43034 1-410) (natural protein)”, the Kd amounted to 0.41 µM.
